According to patent US20210095004:

What was measured:
Aca cand27 = biological target: T1, Aca cand27
T1 chain: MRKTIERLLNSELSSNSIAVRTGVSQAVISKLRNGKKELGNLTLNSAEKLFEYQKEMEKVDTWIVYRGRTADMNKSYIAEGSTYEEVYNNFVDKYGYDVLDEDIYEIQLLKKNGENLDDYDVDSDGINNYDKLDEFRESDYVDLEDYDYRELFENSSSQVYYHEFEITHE

truncated Aca cand9 = biological target: T2, truncated Aca cand9
T2 chain: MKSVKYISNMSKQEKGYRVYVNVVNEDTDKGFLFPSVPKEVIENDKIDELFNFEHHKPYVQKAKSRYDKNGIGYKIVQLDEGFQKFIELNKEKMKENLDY

truncated Aca cand27 = biological target: T3, truncated Aca cand27
T3 chain: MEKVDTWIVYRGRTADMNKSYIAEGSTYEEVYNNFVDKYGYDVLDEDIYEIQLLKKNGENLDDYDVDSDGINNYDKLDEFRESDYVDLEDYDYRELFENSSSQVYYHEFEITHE

Aca cand9 = biological target: T4, Aca cand9
T4 chain: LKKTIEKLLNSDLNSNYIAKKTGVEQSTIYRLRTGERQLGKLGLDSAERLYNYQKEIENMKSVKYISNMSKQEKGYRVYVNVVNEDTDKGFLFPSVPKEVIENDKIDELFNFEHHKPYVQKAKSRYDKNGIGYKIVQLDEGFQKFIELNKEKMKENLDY

B1: Staphylococcus aureus Cas9 (protein)
chain: MKRNYILGLDIGITSVGYGIIDYETRDVIDAGVRLFKEANVENNEGRRSKRGARRLKRRRRHRIQRVKKLLFDYNLLTDHSELSGINPYEARVKGLSQKLSEEEFSAALLHLAKRRGVHNVNEVEEDTGNELSTKEQISRNSKALEEKYVAELQLERLKKDGEVRGSINRFKTSDYVKEAKQLLKVQKAYHQLDQSFIDTYIDLLETRRTYYEGPGEGSPFGWKDIKEWYEMLMGHCTYFPEELRSVKYAYNADLYNALNDLNNLVITRDENEKLEYYEKFQIIENVFKQKKKPTLKQIAKEILVNEEDIKGYRVTSTGKPEFTNLKVYHDIKDITARKEIIENAELLDQIAKILTIYQSSEDIQEELTNLNSELTQEEIEQISNLKGYTGTHNLSLKAINLILDELWHTNDNQIAIFNRLKLVPKKVDLSQQKEIPTTLVDDFILSPVVKRSFIQSIKVINAIIKKYGLPNDIIIELAREKNSKDAQKMINEMQKRNRQTNERIEEIIRTTGKENAKYLIEKIKLHDMQEGKCLYSLEAIPLEDLLNNPFNYEVDHIIPRSVSFDNSFNNKVLVKQEENSKKGNRTPFQYLSSSDSKISYETFKKHILNLAKGKGRISKTKKEYLLEERDINRFSVQKDFINRNLVDTRYATRGLMNLLRSYFRVNNLDVKVKSINGGFTSFLRRKWKFKKERNKGYKHHAEDALIIANADFIFKEWKKLDKAKKVMENQMFEEKQAESMPEIETEQEYKEIFITPHQIKHIKDFKDYKYSHRVDKKPNRELINDTLYSTRKDDKGNTLIVNNLNGLYDKDNDKLKKLINKSPEKLLMYHHDPQTYQKLKLIMEQYGDEKNPLYKYYEETGNYLTKYSKKDNGPVIKKIKYYGNKLNAHLDITDDYPNSRNKVVKLSLKPYRFDVYLDNGVYKFVTVKNLDVIKKENYYEVNSKCYEEAKKLKKISNQAEFIASFYNNDLIKINGELYRVIGVNNDLLNRIEVNMIDITYREYLENMNDKRPPRIIKTIASKTQSIKKYSTDILGNLYEVKSKKHPQIIKKG
SauCas9-mediated cleavage of target DNA in vitro (FIG. 1) (Aca cand27): inhibited SauCas9-mediated cleavage of target DNA at Acr:SauCas9 molar ratios of 10:1 and 20:1 | SauCas9/guide RNA-mediated cleavage of target DNA in vitro (FIG. 2B) (truncated Aca cand9): inhibited SauCas9/guide RNA-mediated cleavage of target DNA at truncated Acr:SauCas9 molar ratios of 5:1, 10:1, and 20:1 | SauCas9/guide RNA-mediated cleavage of target DNA in vitro (FIG. 2C) (truncated Aca cand27): inhibited SauCas9/guide RNA-mediated cleavage of target DNA at truncated Acr:SauCas9 molar ratios of 5:1, 10:1, and 20:1 | SauCas9-mediated cleavage of target DNA in vitro (FIG. 1) (Aca cand9): inhibited SauCas9-mediated cleavage of target DNA at Acr:SauCas9 molar ratios of 10:1 and 20:1
